The assay deals with αVβ3 integrin (rat (endogenous in primary astrocytes)) (UniProt Q8R2H2).
Chain of UniProt Q8R2H2 (Q8R2H2 whole entry, looked up): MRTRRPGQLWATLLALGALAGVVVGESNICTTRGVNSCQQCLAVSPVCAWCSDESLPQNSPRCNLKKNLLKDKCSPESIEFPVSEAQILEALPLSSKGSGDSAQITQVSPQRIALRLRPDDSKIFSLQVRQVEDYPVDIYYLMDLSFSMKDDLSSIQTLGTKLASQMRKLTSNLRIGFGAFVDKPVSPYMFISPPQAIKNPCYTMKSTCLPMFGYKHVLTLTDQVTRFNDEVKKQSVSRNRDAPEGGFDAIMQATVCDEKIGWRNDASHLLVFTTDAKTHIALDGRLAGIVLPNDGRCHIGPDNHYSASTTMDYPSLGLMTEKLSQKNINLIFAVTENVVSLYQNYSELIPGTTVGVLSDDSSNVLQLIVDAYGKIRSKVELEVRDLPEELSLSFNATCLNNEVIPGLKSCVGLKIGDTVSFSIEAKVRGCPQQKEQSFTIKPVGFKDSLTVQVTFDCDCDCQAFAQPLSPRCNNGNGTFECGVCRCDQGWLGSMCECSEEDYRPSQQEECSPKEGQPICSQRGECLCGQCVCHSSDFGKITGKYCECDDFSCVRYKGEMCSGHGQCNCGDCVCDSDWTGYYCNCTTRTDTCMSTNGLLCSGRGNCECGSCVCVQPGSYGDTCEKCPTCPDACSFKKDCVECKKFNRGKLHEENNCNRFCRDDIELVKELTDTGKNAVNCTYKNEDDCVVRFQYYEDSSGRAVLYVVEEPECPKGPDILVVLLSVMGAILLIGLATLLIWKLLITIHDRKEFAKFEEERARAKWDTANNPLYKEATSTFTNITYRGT

B1: Thy-1-Fc fusion protein (Fc fusion)
chain: QKVTSLTACLVNQNLRLDCRHENNTKDNSIQHEFSLTREKRKHVLSGTLGIPEHTYRSRVTLSNQPYIKVLTLANFTTKDEGDYFCELQVSGANPMSSNKSISVYRDKLVKC
Regarding B1, the wound closure (migration) of primary astrocytes pretreated with Hp OMVs (2.5 µg/ml, 12 h), then stimulated with Thy-1-Fc/Protein-A for 24 h came out at 25% and the wound closure (migration) of primary astrocytes pretreated with TNF (10 ng/ml, 48 h), then stimulated with Thy-1-Fc/Protein-A for 24 h is 10%.

For the origin of these results see paper PMC9996972.
